Experimental data taken from the nanobody polyreactivity screen of Harvey et al. (2022).

Assay: yeast display, Sf9 membrane polyspecificity reagent, FACS + sequencing; frameworks hold sequencing errors
Method in brief: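 A nanobody's polyreactivity label depends on the gate it was sorted from. Yeast display cells were stained with 10% biotinylated, detergent-solubilized Sf9 membrane reagent for 1 hour at 4 °C, enriched on streptavidin microbeads and sorted by FACS. The low and high (top ~1%) gates were set on anti-HA fluorescence for expression and streptavidin fluorescence for reagent binding.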

## QVQLVESGGGLVQAGGSLRLSCAASGFTFVKNAMGWYRQAPGKERELVAAITGSAGRTYYADSVKGRFTISRANAKNTVYLQMNSLKPEDTAVYYCNVYYGYFRSRYGYWGQGTQVTVSS
  polyreactivity (PSR sort gate): high polyreactivity

## QVQLVESGGGLVQAGGSLRLSCAASGFTFVNYAMGWYRQAPGKERELVAAIRRSGSRTYYADSVKGRFTISRDNAKNTVYLQINSLKPEDTAVYYCGAVCYRLYGYWGQGTQVTVSS
  polyreactivity (PSR sort gate): low polyreactivity

## QVQLVESGGGLVQAGGSLRLSCAASGFTFVNYAMGWYRQAPWKERELVAAIRRSGSRTYYADSVKGRFTISRDIAKNTVYLQMNCLNPEDTAVYYCAAVWYRLYGYWGQGTQVTVSS
  polyreactivity (PSR sort gate): low polyreactivity

## QVQLVESGGGLVQAGGSLRLSCAASGFTFVPYAMGWYRQAPGKERETNADSVKGRFTISRDNAKNTVYLQMNSLKPEDTAVYYCAAGGYGPYDYWGQGTQVTVSS
  polyreactivity (PSR sort gate): low polyreactivity

## QVQLVESGGGLVQAGGSLRLSCAASGFTFVRNTMGWYRQAPGKERELVAAISRSGGSTYYADSVKGRFTISRDNAKNTVYLQMYSLKPEDTAVYYCNAYRYVHYDWGQGSQVTVSS
  polyreactivity (PSR sort gate): high polyreactivity

## QVQLVESGGGLVQAGGSLRLSCAASGFTFVRNTMGWYRQATGKERELVAAISRSGGSTYYADSVKGRFTISRDNAKNTVYFKIYSLKPEDSAVYYCNAYRYVHYDWGHGTQVTVSS
  polyreactivity (PSR sort gate): high polyreactivity

## QVQLVESGGGLVQAGGSLRLSCAASGFTFVRNTMGWYRQPPGKETELVAAINRSGGNTYYADSVKGRFTISRDNAKNTVYLQMNCLKPEDTAVYYCAADGFGRRDYYYWGQGTQVTVSS
  polyreactivity (PSR sort gate): high polyreactivity

## QVQLVESGGGLVQAGGSLRLSCAASGFTFVRYAMGWYRKAPGKERELVAAISGSGDRTYYADSVKGRFTISRDNAKNTVYLQMNSLKPEDTAVYYCAKKSLGARHTGRYNYWGQGTQVTVSS
  polyreactivity (PSR sort gate): high polyreactivity

## QVQLVESGGGLVQAGGSLRLSCAASGFTFVRYAMGWYRQAPGKEREFVASISARGGNTFYADSVKGRFTISRDNAKNTVYLQMNSLKPEDTAVYYCAKRGPYGTGYGYWGQGTQVTVSS
  polyreactivity (PSR sort gate): high polyreactivity

## QVQLVESGGGLVQAGGSLRLSCAASGFTFVRYAMGWYRQAPGKERELVAAISRRGGSTYYADSVKGRFTISRDNAKNTVYLQMNSLKPEDTAVYYCAARAPYRRVRMNYWGQGTQVTVSS
  polyreactivity (PSR sort gate): high polyreactivity

## QVQLVESGGGLVQAGGSLRLSCAASGFTFVRYAMGWYRQAPGKERELVAVISRSGGSTNYADSVKGRFTISRDNAKNTVYLQMNSLKAEDTAVYYCNVVVKGAWDYYPYDYWGQGTQVTVSS
  polyreactivity (PSR sort gate): high polyreactivity

## QVQLVESGGGLVQAGGSLRLSCAASGFTFVRYVMGWSRQAPGKERELVAAISRSGGSTHYADSVKGRFTISRDNAKNTVYLQMNSLKPEDTAVYYCAAASPRWPGQGDYWGQGTQVTVSS
  polyreactivity (PSR sort gate): high polyreactivity

## QVQLVESGGGLVQAGGSLRLSCAASGFTFVSNALGWYRQAPGKETELVADITSDGSTNYADSVKGRFSISRDNAKNTVYLQMNSLKPEDTAVYYCATDQRSHTWVNQFDYWGLGTQVTVSS
  polyreactivity (PSR sort gate): low polyreactivity

## QVQLVESGGGLVQAGGSLRLSCAASGFTFVSNDMGWYRQAPGKERELVAVITTGDTSTSYADSVKGRFTISRDNAKNTVYLQMNSLKPEDTAVYYCAADPHDTVRHDALVELEYWGQGTQVTVSS
  polyreactivity (PSR sort gate): low polyreactivity

## QVQLVESGGGLVQAGGSLRLSCAASGFTFVSYAMGWYRQAPGKERELVAAISRSGGTTYYADSVKGRFTISRDNAKNTGYFQMNSLKPEDTAVYYCAADFYVFYTRYYYWGQGTQVTVSS
  polyreactivity (PSR sort gate): low polyreactivity

## QVQLVESGGGLVQAGGSLRLSCAASGFTFVSYAMGWYRQAPGKERELVATITSDGSTNYADSVKGRFTISRDNAKNTVYLQMNSLKPEDTAVYYCAADIHYYPGYLAYDYWGQGTQVTVSS
  polyreactivity (PSR sort gate): low polyreactivity

## QVQLVESGGGLVQAGGSLRLSCAASGFTFVTNAMGWYRQAPGKERELVAAISRRGGSTYYADSVKGRFTISRDIAKNTVNLEMNSLKPEDTAVYYCNADRQRRRQFSFSSPYDYWGQGTLVTVSS
  polyreactivity (PSR sort gate): high polyreactivity
